How the values were obtained:
[1] = target: T1, hCD138 (ELISA of Table 29) (human, UniProt P18827 23-254, limits assumed); assay: hCD138 ELISA
T1 construct: also called human CD138
T1 sequence: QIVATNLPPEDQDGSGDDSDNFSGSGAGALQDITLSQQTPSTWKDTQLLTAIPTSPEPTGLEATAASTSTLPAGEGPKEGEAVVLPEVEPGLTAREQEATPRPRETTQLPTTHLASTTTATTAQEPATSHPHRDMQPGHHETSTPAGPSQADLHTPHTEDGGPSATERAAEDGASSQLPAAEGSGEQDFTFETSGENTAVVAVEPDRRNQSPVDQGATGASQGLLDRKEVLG

[2] = target: T2, Human FGFR3c on transfected CHO cells (human, UniProt P22607 23-375); assay: FACS histogram on CHO cells expressing human FGFR3c (panel title FGFR3c K.I.); concentration not given
T2 sequence: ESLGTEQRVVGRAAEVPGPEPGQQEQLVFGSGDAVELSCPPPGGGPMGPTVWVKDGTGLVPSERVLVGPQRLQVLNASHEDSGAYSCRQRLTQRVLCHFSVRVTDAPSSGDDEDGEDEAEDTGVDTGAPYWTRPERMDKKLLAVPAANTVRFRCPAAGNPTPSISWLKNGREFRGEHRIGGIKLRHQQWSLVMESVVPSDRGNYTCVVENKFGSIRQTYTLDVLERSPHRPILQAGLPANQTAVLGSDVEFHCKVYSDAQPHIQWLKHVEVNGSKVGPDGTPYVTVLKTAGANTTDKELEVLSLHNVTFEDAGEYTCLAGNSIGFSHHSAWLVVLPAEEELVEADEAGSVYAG
Source text: (§1) CHO cells (Chinese Hamster Ovary cells) were transfected to express the human FGFR3c (FIG. 16A) or human FGFR3b (FIG. 16B) on the cell surface.

[3] = target: T3, Human FGFR3b on transfected CHO cells (human); assay: FACS histogram on CHO cells expressing human FGFR3b (panel title FGFR3b K.I.); concentration not given
T3 chain: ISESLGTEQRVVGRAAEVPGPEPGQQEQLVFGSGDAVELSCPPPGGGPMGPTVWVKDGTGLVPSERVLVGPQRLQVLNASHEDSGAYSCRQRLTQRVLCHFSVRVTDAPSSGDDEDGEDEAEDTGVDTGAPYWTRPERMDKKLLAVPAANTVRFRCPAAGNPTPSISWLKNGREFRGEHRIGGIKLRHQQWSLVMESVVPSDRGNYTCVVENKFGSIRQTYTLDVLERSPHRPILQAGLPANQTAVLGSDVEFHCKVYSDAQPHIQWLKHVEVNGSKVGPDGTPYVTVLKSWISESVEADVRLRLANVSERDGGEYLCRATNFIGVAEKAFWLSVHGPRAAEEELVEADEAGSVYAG
Source text: as §1

[4] = target: T4, Human CD138-Fc protein (human, UniProt P18827 23-254); assay: ELISA, plate-coated human CD138-Fc
T4 construct: also called hCD138-Fc
T4 sequence: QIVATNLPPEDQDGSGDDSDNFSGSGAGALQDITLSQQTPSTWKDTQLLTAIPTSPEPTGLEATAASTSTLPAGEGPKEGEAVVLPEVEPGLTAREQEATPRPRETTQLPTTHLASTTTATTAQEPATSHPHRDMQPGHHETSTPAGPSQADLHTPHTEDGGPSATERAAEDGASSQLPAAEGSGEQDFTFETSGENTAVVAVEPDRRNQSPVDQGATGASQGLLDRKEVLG
Experimental: (§2) A CD138 binding ELISA was performed with 9 representative humanized antibodies to determine binding to portion of the linear CD138 peptide used for immunization (FIG. 7). […] Coated plates were incubated with various dilutions of each of the 9 representative antibodies overnight and binding was detected with a goat anti-human IgG (H+L)-HRP. EC50s were determined using four parameter fit curves (Table 21). An ELISA was also performed to detect binding to plate-coated human CD138-Fc protein (Table 21).

[5] = target: T5, Human syndecan-1 (CD138) on the cell surface (human, UniProt P18827 23-310); assay: FACS on KMS-11 cells (previous experiments); KMS-11 multiple myeloma cells, previous experiments
T5 construct: Endogenous on H929, KMS-11 and RT112/84 cells or transfected into Expi293 cells; also called human CD138; hCD138
T5 sequence: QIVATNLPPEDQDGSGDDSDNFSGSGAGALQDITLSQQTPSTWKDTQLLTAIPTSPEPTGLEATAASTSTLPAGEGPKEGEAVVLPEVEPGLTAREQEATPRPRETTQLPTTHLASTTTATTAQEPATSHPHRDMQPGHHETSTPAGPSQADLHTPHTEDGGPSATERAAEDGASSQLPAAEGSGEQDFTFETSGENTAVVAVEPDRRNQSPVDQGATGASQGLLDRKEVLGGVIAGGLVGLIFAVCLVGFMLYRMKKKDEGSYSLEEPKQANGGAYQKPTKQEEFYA

[6] = target: T6, hCD138 peptide AGEGPKEGEAVVLP (human); assay: ELISA, plate-coated hCD138 peptide
T6 construct: Portion of the linear CD138 peptide used for immunization; also the peptide in the crystal structure; also called syndecan-1 peptide
T6 peptide: AGEGPKEGEAVVLP
Experimental: as §2

[7] = target: T5, Human syndecan-1 (CD138) on the cell …; assay: FACS on RT112/84 cells (previous experiments); RT112/84 bladder cancer cells (printed RT-122/84), previous experiments
[8] = target: T7, Cynomolgus monkey CD138 on transfected Expi293 cells (cynomolgus monkey, UniProt P18827 23-310 (human entry)); assay: FACS titration on Expi293 cells transfected with cynomolgus CD138
T7 construct: also called cyno CD138
T7 chain: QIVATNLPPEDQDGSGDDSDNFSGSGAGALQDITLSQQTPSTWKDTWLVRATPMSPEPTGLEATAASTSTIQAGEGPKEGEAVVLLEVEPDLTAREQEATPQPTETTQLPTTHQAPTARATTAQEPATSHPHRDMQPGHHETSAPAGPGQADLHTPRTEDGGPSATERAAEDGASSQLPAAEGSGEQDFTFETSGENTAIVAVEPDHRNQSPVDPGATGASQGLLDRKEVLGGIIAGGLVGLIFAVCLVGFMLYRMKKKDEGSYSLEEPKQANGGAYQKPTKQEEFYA
Source text: Briefly, a vector directing the cell-surface expression of human CD138 or cyno CD138 was transfected in Expi293 cells.

[9] = target: T8, Human CD138 His (human, UniProt P18827 23-254); assay: SPR (BioRad Proteon), CD138 His immobilized, bivalent analyte fit
T8 construct: also called hCD138
T8 sequence: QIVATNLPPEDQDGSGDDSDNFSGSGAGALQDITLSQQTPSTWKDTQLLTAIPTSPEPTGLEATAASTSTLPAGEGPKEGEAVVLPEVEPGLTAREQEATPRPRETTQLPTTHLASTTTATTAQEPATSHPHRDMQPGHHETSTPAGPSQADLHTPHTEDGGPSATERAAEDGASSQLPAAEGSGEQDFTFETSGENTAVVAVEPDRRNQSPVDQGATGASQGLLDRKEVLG
Experimental: (§3) Murine IgGs were purified from the hybridoma supernatants and the IgGs were subject to SPR (surface plasmon resonance) for kinetic binding measurements. Human or mouse CD138 His was immobilized on a GLM chip at […] on a BioRad Proteon. […] KDs were measured using bivalent analyte fit.

[10] = target: T9, Mouse CD138 His (mouse, UniProt P18828 23-255); assay: SPR, mouse CD138 His immobilized
T9 construct: also called mCD138
T9 sequence: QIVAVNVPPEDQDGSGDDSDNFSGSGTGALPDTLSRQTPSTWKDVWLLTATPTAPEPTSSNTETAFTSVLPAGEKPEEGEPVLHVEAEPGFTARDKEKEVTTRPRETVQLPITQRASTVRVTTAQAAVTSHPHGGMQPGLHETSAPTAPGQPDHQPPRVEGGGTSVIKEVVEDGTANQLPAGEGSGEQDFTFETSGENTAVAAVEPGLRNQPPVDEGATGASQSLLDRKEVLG
Experimental: as §3

[11] = target: T10, Negative control peptide QAAVTSHPHGGMQPGLHETSA (mouse); assay: told in the method of the peptide ELISA
T10 construct: also called mouse CD138 peptide
T10 peptide: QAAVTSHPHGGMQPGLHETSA
Experimental: as §2

[12] = target: T8, Human CD138 His; assay: SPR, summary table
Experimental: as §3

[13] = target: T9, Mouse CD138 His; assay: SPR (BioRad Proteon), mouse CD138 His immobilized, bivalent analyte fit
Experimental: as §3

[14] = target: T9, Mouse CD138 His; assay: SPR, summary table
Experimental: as §3

B1: hF6-HN-G7 (bispecific antibody, human IgG1, kappa)
heavy: not shown
light: DVVMTQTPLSLSVTPGQPASISCKSSQSLLASDGKTYLNWLLQRPGQSPKRLIYLVSKLDSGVPNRFSGSGSGTDFTLQISRVEAEDVGLYYCWQGAHFPFTFGSGTKLEIKRTVAAPSVFIFPPSDEQLKSGTASVVCLLNNFYPREAKVQWKVDNALQSGNSQESVTEQDSKDSTYSLSSTLTLSKADYEKHKVYACEVTHQGLSSPVTKSFNRGEC
notes: G7 Fynomer fused through the linker to the N-terminus of the hF6 heavy chain; IgG1/kappa
Q: Which results are given for B1?
A: EC50 [1]: 0.69 nM; binding result [2]: binds; binding result [3]: binds

B2: 12P16F6 hIgG1 (antibody, V domains shown)
VH: QVQLQQSGAEVVKPGASVKLSCKASGYTFTSYYLYWVKKGPGQGLDWIGEIYPRSGGTNINEKFLSKATLTADESSSTAYLQLSSLTSEDSAVYYCTRSLLYWGQGTTLIVSS
VL: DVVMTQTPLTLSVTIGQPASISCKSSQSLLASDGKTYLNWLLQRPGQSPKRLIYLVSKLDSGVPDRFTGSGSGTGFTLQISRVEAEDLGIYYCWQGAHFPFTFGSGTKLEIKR
notes: Chimeric antibody: murine variable regions of F12P16F6 with constant regions of human IgG1, kappa isotype; also called chF6; chP16F6
Q: How did the EC50 [4] turn out when B2 was run?
A: 0.471 nM

Q: And the EC50 [5]?
A: ~3 nM

Q: What about the EC50 [6] of the same binder?
A: 0.599 nM

Q: And the EC50 [7]?
A: ~9 nM

Q: Does B2 bind [8]?
A: binds

B3: 13P30A7 hIgG1 (antibody, V domains shown)
VH: EVQLVESGGGLVQPKGSLKLSCAASGFTFNTYAMNWVRQAPGKGLEWIARIRSKSNNYATYYADSVKDRFTISRDDSQSLLYLQMNNLKTEDTAIFYCVTDYGYVYFDAWGAGTTVTVSS
VL: NIIMTQSPKSMAMSVGERVTLSCKASENVGNYVSWYQQKPEQSPKLLIYGASYRYTGVPDRFTGSGSGTDFTLTISSVQAEDLADYHCGQSSRYPLTFGAGTKLELKR
notes: Chimeric antibody: murine variable regions of F13P30A7 with constant regions of human IgG1, kappa isotype; also called chP30A7; chP30a7
Q: Does B3 bind [8]?
A: binds

B4: F12P16F6 (antibody, V domains shown)
VH: QVQLQQSGAEVVKPGASVKLSCKASGYTFTSYYLYWVKKGPGQGLDWIGEIYPRSGGTNINEKFLSKATLTADESSSTAYLQLSSLTSEDSAVYYCTRSLLYWGQGTTLIVSS
VL: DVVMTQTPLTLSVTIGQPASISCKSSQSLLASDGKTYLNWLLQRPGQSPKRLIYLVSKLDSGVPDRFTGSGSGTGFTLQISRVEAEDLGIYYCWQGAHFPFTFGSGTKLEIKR
notes: Murine hybridoma antibody (IgG); tested as hybridoma supernatant in FACS and as purified murine IgG in SPR
Q: Which Kd [9] does the source give for B4 here?
A: 21 nM

Q: And the koff [9]?
A: 0.00117 s⁻¹

Q: And the kon [9]?
A: 55700 M⁻¹ s⁻¹

Q: Does B4 bind [10]?
A: no binding (tested: 167 nM)

Q: Does B4 bind [11]?
A: no binding

Q: And the Kd [12]?
A: 21 nM

B5: F12P18D4.a (antibody, V domains shown)
VH: EVQLQQSGPELVKPGASVKMSCKASGYTFADYYMKWVKQSHGKSLEWIGDINPNSGDTFYNHKFKGKATLTVDKSSSTAYMQLNSLTSEDSAVYYCARTYYDYWGQGTTLTVSS
VL: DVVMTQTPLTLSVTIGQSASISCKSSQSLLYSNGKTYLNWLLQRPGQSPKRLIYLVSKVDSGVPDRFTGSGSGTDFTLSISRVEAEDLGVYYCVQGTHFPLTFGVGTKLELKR
notes: Murine IgG purified from hybridoma supernatant
Q: How did the Kd [9] turn out when B5 was run?
A: 28.6 nM

Q: And the koff [9]?
A: 0.018 s⁻¹

Q: And the kon [9]?
A: 631000 M⁻¹ s⁻¹

Q: What about the Kd [13] of the same binder?
A: 672 nM

Q: What about the Kd [14] of the same binder?
A: 672 nM

Q: What about the Kd [12] of the same binder?
A: 29 nM

From patent US20220249679A1 (MITSUBISHI TANABE PHARMA, published 2022)
